These results are taken from patent publication US20240352128A1.

In general, EC50 refers to the concentration needed to bring the measured effect to its halfway point. Read a low EC50 as a more potent agent.

One assay concerns the target CD16b (human) (UniProt O75015). Kind of assay: FACS.
The next assay addresses CD16a (human) (UniProt P08637). Kind of assay: FACS. In general terms: A flow cytometer gives signals particle by particle.

CD16b (human), sequence (O75015 17-200): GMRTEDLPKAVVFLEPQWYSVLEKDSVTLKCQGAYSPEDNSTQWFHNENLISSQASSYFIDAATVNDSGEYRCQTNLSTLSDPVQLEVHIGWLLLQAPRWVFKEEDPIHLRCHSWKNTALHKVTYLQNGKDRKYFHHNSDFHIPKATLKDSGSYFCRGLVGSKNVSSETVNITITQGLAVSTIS
CD16a (human), sequence (P08637 17-254): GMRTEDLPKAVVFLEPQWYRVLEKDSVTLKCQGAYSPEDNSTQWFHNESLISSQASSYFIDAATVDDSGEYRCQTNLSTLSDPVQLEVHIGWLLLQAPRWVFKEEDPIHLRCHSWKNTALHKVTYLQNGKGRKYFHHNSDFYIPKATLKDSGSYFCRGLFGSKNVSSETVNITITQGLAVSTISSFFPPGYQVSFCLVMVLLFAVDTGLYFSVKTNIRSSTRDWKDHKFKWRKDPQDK

In the assay with CD16b (human), CD16A-mIgG1 displayed a 50% effective concentration (EC50) of 401 µM.

In the case of mouse IgG, the values for the EC50 with CD16b (human) and with CD16a (human) were 1440 µM and 1950 µM, respectively.
